Assay results: article PMC5306355, “Clustered Genes Encoding 2-Keto-L-Gulonate Reductase and L-Idonate 5-Dehydrogenase in the Novel Fungal D-Glucuronic Acid Pathway” (Frontiers in Microbiology, 2017)
Each block holds one molecule with its values, some of them ahead of it.

Assays:
Type in all cases: biochemical, Aspergillus niger
GluE [1] = test: NADH formation followed at […] nm; conditions: 400 μM NAD+; 50 mM Tris pH 8
GluE [2] = test: NADH oxidation followed at […] nm; conditions: 400 μM NADH; 50 mM Tris pH 7
purified protein [3] = substrate: O=C(O)C(=O)[C@@H](O)[C@H](O)[C@@H](O)CO; test: purified protein; conditions: NADPH as co-substrate (Methods print 400 μM NADH), 50 mM Tris pH 7
purified protein [4] = substrate: O=C(O)[C@H](O)[C@@H](O)[C@H](O)[C@@H](O)CO; test: purified protein; conditions: NADP+ as co-substrate (Methods print 400 μM NAD+), 50 mM Tris pH 8

Molecule: O=C(O)[C@H](O)[C@@H](O)[C@H](O)[C@@H](O)CO [L-idonate]
Km (GluE [1]): 30.9 ± 1.5 mM

Km (GluE [2]): 8.4 ± 0.1 mM
Molecule: O=C(CO)[C@@H](O)[C@H](O)[C@@H](O)C(=O)O [5-keto-D-gluconate]

B1: GluD (Aspergillus niger) (protein)
chain: MPAALLIGAITHSMPEWNDLSSILTLKEFPSGTREDFIRNCRDGQYDDVVAIYRSNTSTKFTGPFDAELLSFLPSSLKYIAHNGAGYDNIDVAACTKKGIAVSSTPVAVNNATADVAIFLMIGALRQAYIPVTSLREGKFLGQTGLGHDPQNKVLGILGMGGIGREVARRARAFGMTIQYHNRSRLSPELEDGATYVSFDELLANSDVLSLNLALNASTRHIIGKTEFQKMKDGVIIVNTARGALIDEKALVEALESGKVWSAGLDVYENEPAIEPGLVNNPRVMLLPHIGTMTYETQREMELLVLNNLRSGVETGKMITLVPEQKDVFGK
Km (purified protein [3]): 25.3 ± 1.2 mM
Vmax (purified protein [3]): 34.9 µmol/min/mg
kcat (purified protein [3]): 21.4 ± 0.3 s⁻¹
Km (purified protein [4]): 12.6 ± 0.8 mM
Vmax (purified protein [4]): 1.7 µmol/min/mg
kcat (purified protein [4]): 1.1 s⁻¹
